Results as given in the supplement of paper PMC10126150.
± gives the standard deviation of the averaged measurements.

System: ATP
Experiment: switch fluorescence ratio, 500 uM ATP over buffer (Cy3 cluster intensity, sum of 5 cycles each) (fold (ratio)); higher = stronger signal-on switching upon ATP binding; sequences stand for … in TCGTCGGCAGCGTCAGATGTGTATAAGAGACAGTTTTTTTTTTTTTTTTTTTTTTTTT…TC
Settings: aptamer strand: ATP DNA aptamer (quencher-CACCTGGGGGAGTATTGCGGAGGAAGG + anchor), 100 nM annealed; ATP concentration: 500 uM
Method in brief: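 Clusters carrying Cy3-labelled switching strands on a modified Illumina MiSeq flow-cell were annealed to 100 nM quencher-labelled ATP aptamer and imaged in selection buffer. They were imaged again after 15 min with 500 uM ATP at 22 °C, over five buffer/ATP cycles with NaOH stripping and re-annealing in between. For each cluster, the fluorescence ratio is the summed Cy3 intensity of the target cycles divided by that of the buffer cycles, averaged per switch-domain sequence. Clusters outside 100-1000 RFU were left out.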
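Also: ATP exposure 15 min at 22 °C before imaging.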

GCAACCTGAG
switch fluorescence ratio: 1.56 ± 0.14

GCAACTTATT
switch fluorescence ratio: 0.983 ± 0.022

GCAAGAGATG
switch fluorescence ratio: 1.01 ± 0.027

GCAAGAGTGA
switch fluorescence ratio: 1.04 ± 0.038

GCAAGATGGG
switch fluorescence ratio: 0.983 ± 0.015

GCAAGATTTA
switch fluorescence ratio: 1.01 ± 0.019

GCAAGCTGCA
switch fluorescence ratio: 1.016 ± 0.0087

GCAAGGGCTA
switch fluorescence ratio: 1.04 ± 0.045

GCAAGGGGGT
switch fluorescence ratio: 1.05 ± 0.053

GCAAGGGTGT
switch fluorescence ratio: 1.153 ± 0.0013

GCAAGGGTTG
switch fluorescence ratio: 1.01 ± 0.022

GCAAGTCATG
switch fluorescence ratio: 1.03 ± 0.04

GCAAGTTGGT
switch fluorescence ratio: 1 ± 0.017

GCAATGGGAA
switch fluorescence ratio: 1.1 ± 0.019

GCAATTAAAT
switch fluorescence ratio: 0.996 ± 0.036

GCAATTCCGG
switch fluorescence ratio: 1.21 ± 0.035

GCAATTTCGC
switch fluorescence ratio: 1.42 ± 0.58

GCAATTTTGT
switch fluorescence ratio: 1.03 ± 0.015

GCACAAGATG
switch fluorescence ratio: 1.0073 ± 0.00098

GCACATTTGC
switch fluorescence ratio: 0.95 ± 0.079

GCACCGAAAA
switch fluorescence ratio: 1.29 ± 0.4

GCACCGGCTA
switch fluorescence ratio: 1.16 ± 0.23

GCACGGCGTA
switch fluorescence ratio: 1.04 ± 0.038

GCACGGGGCT
switch fluorescence ratio: 1.04 ± 0.018

GCACGGGGGT
switch fluorescence ratio: 1.05 ± 0.045

GCACGTGCAG
switch fluorescence ratio: 0.9955 ± 0.0041

GCACTCAGGA
switch fluorescence ratio: 1.03 ± 0.04

GCACTCCAGG
switch fluorescence ratio: 2.61 ± 0.22

GCACTCTGAG
switch fluorescence ratio: 0.993 ± 0.029

GCACTGAAGG
switch fluorescence ratio: 1.0196 ± 0.00041

GCAGAATTTG
switch fluorescence ratio: 1.02 ± 0.031

GCAGAGGGCA
switch fluorescence ratio: 1.01 ± 0.049

GCAGAGGTGG
switch fluorescence ratio: 1.05 ± 0.037

GCAGCACGCG
switch fluorescence ratio: 1.03 ± 0.031

GCAGCCATAA
switch fluorescence ratio: 2.27 ± 0.16

GCAGCCGGGT
switch fluorescence ratio: 0.991 ± 0.022

GCAGCGGGGA
switch fluorescence ratio: 1.04 ± 0.017

GCAGCTGGCG
switch fluorescence ratio: 1.04 ± 0.017

GCAGCTGGGT
switch fluorescence ratio: 1.064 ± 0.0034

GCAGCTTGCA
switch fluorescence ratio: 0.993 ± 0.018

GCAGGAAATG
switch fluorescence ratio: 0.992 ± 0.011

GCAGGAAATT
switch fluorescence ratio: 0.973 ± 0.014

GCAGGAGGAA
switch fluorescence ratio: 0.991 ± 0.02

GCAGGAGTTG
switch fluorescence ratio: 0.978 ± 0.087

GCAGGGAGCG
switch fluorescence ratio: 0.978 ± 0.027

GCAGGGATCA
switch fluorescence ratio: 0.9813 ± 0.0013

GCAGGGATGG
switch fluorescence ratio: 0.985 ± 0.035

GCAGGGGATT
switch fluorescence ratio: 1.01 ± 0.033

GCAGGGGGGA
switch fluorescence ratio: 1.04 ± 0.05

GCAGGGGGGT
switch fluorescence ratio: 1.01 ± 0.034

GCAGGGGTTT
switch fluorescence ratio: 1.25 ± 0.48

GCAGGGTAAA
switch fluorescence ratio: 0.986 ± 0.02

GCAGGGTCTG
switch fluorescence ratio: 1.02 ± 0.083

GCAGGGTTTC
switch fluorescence ratio: 0.997 ± 0.024

GCAGGTACGC
switch fluorescence ratio: 1.05 ± 0.033

GCAGGTTGT
switch fluorescence ratio: 1.009 ± 0.0021

GCAGTAATTT
switch fluorescence ratio: 1.49 ± 0.62

GCAGTATAAT
switch fluorescence ratio: 0.9932 ± 0.0099

GCAGTATGCT
switch fluorescence ratio: 1.01 ± 0.062

GCAGTATTTG
switch fluorescence ratio: 0.99057 ± 2.4e-05

GCAGTCCGTC
switch fluorescence ratio: 1.06 ± 0.019

GCAGTGGGTA
switch fluorescence ratio: 0.978 ± 0.016

GCAGTTAATC
switch fluorescence ratio: 1.05 ± 0.026

GCAGTTGTGT
switch fluorescence ratio: 0.9941 ± 0.0058

GCAGTTGTTC
switch fluorescence ratio: 0.981 ± 0.037

GCAGTTTGGC
switch fluorescence ratio: 1.01 ± 0.057

GCAGTTTTTG
switch fluorescence ratio: 0.9746 ± 0.0056

GCATAATTTA
switch fluorescence ratio: 0.9898 ± 0.0096

GCATAGGGGG
switch fluorescence ratio: 1.03 ± 0.081

GCATATAAAC
switch fluorescence ratio: 1.2 ± 0.17

GCATATGGCT
switch fluorescence ratio: 1 ± 0.031

GCATATGTCG
switch fluorescence ratio: 1.097 ± 0.0042

GCATCACGTA
switch fluorescence ratio: 1.17 ± 0.024

GCATCAGGCG
switch fluorescence ratio: 1.01 ± 0.02

GCATCGGGGG
switch fluorescence ratio: 0.981 ± 0.037

GCATCTAGAT
switch fluorescence ratio: 0.986 ± 0.018

GCATGAAACT
switch fluorescence ratio: 1.03 ± 0.034

GCATGCGGTC
switch fluorescence ratio: 1.01 ± 0.027

GCATGGAAAT
switch fluorescence ratio: 0.985 ± 0.045

GCATGGTAGC
switch fluorescence ratio: 0.994 ± 0.037

GCATGTAGTG
switch fluorescence ratio: 0.9794 ± 0.005

GCATGTATAG
switch fluorescence ratio: 1.015 ± 0.0046

GCATGTCGAT
switch fluorescence ratio: 1.02 ± 0.023

GCATGTCTGC
switch fluorescence ratio: 0.9862 ± 0.0093

GCATTAGTTT
switch fluorescence ratio: 1.04 ± 0.012

GCATTATGTT
switch fluorescence ratio: 0.987 ± 0.044

GCATTATTCG
switch fluorescence ratio: 1.059 ± 0.0079

GCATTATTTG
switch fluorescence ratio: 1.05 ± 0.02

GCATTCAGGG
switch fluorescence ratio: 1.09 ± 0.14

GCATTCGGCT
switch fluorescence ratio: 1.04 ± 0.069

GCATTCGGTT
switch fluorescence ratio: 0.972 ± 0.039

GCATTCTCGT
switch fluorescence ratio: 1.029 ± 0.0021

GCATTGAGGG
switch fluorescence ratio: 1.04 ± 0.047

GCATTGGTAT
switch fluorescence ratio: 0.981 ± 0.011

GCATTGTAGG
switch fluorescence ratio: 0.972 ± 0.041

GCATTTCTTC
switch fluorescence ratio: 1.03 ± 0.04

GCATTTGGTC
switch fluorescence ratio: 1.01 ± 0.023

GCATTTTGAA
switch fluorescence ratio: 1.02 ± 0.026

GCCAAACGGG
switch fluorescence ratio: 1.13 ± 0.16

GCCAAAGCGG
switch fluorescence ratio: 0.997 ± 0.014

GCCAACAGTG
switch fluorescence ratio: 1.32 ± 0.12

GCCAATGGGG
switch fluorescence ratio: 0.989 ± 0.026

GCCAATTAAT
switch fluorescence ratio: 1.01 ± 0.012

GCCACAAATT
switch fluorescence ratio: 1.01 ± 0.033

GCCAGCGTCC
switch fluorescence ratio: 1.62 ± 0.83

GCCAGGCATT
switch fluorescence ratio: 0.989 ± 0.05

GCCAGTGCTG
switch fluorescence ratio: 1.017 ± 0.0069

GCCATAATTA
switch fluorescence ratio: 0.981 ± 0.018

GCCATAGGAG
switch fluorescence ratio: 0.987 ± 0.031

GCCATATGTG
switch fluorescence ratio: 1.02 ± 0.015

GCCATGGTTG
switch fluorescence ratio: 1.04 ± 0.067

GCCATGTGAA
switch fluorescence ratio: 1.004 ± 0.0084

GCCATTTATT
switch fluorescence ratio: 0.977 ± 0.024

GCCCAATAAG
switch fluorescence ratio: 1.03 ± 0.025

GCCCATGGGT
switch fluorescence ratio: 1.07 ± 0.12

GCCCATTGTG
switch fluorescence ratio: 1.2 ± 0.072

GCCCCCTTCG
switch fluorescence ratio: 1.08 ± 0.065

GCCCCGGGGA
switch fluorescence ratio: 1.04 ± 0.011

GCCCCGGGGT
switch fluorescence ratio: 1.03 ± 0.056

GCCCGGAGAC
switch fluorescence ratio: 1.71 ± 0.025

GCCCGGATTT
switch fluorescence ratio: 1 ± 0.047

GCCCGGGCGC
switch fluorescence ratio: 1 ± 0.014

GCCCGTCCTG
switch fluorescence ratio: 1.04 ± 0.015

GCCCTATAGG
switch fluorescence ratio: 1.01 ± 0.011

GCCCTGATGC
switch fluorescence ratio: 1.01 ± 0.051

GCCCTGCATG
switch fluorescence ratio: 1.01 ± 0.052

GCCCTTAGCG
switch fluorescence ratio: 1.06 ± 0.073

GCCGAAGGGT
switch fluorescence ratio: 1.02 ± 0.03

GCCGAATTTG
switch fluorescence ratio: 1.028 ± 0.0068

GCCGCAGGTC
switch fluorescence ratio: 1.23 ± 0.083

GCCGCAGTTT
switch fluorescence ratio: 1.31 ± 0.18

GCCGCCGTGT
switch fluorescence ratio: 0.983 ± 0.031

GCCGGAGTGG
switch fluorescence ratio: 0.982 ± 0.024

GCCGGATCTT
switch fluorescence ratio: 1.01 ± 0.02

GCCGGATT
switch fluorescence ratio: 1.01 ± 0.04

GCCGGGAGGA
switch fluorescence ratio: 1.01 ± 0.032

GCCGGGAGGG
switch fluorescence ratio: 0.985 ± 0.025

GCCGGGATCG
switch fluorescence ratio: 0.97 ± 0.03

GCCGGGCAAC
switch fluorescence ratio: 0.995 ± 0.037

GCCGGGCCGG
switch fluorescence ratio: 0.9666 ± 0.0055

GCCGGGGTTA
switch fluorescence ratio: 0.9966 ± 0.0088

GCCGGTTAGA
switch fluorescence ratio: 0.998 ± 0.03

GCCGTAGCTG
switch fluorescence ratio: 1.02 ± 0.037

GCCGTAGTCG
switch fluorescence ratio: 1.03 ± 0.042

GCCGTATGCG
switch fluorescence ratio: 0.992 ± 0.019

GCCGTCTAAG
switch fluorescence ratio: 0.993 ± 0.022

GCCGTCTGGC
switch fluorescence ratio: 1.02 ± 0.045

GCCGTGGAG
switch fluorescence ratio: 1.0133 ± 0.00012

GCCGTGGGGC
switch fluorescence ratio: 0.997 ± 0.061

GCCGTGTTTT
switch fluorescence ratio: 1.006 ± 0.0018

GCCGTTACTG
switch fluorescence ratio: 1.05 ± 0.031

GCCGTTATGG
switch fluorescence ratio: 1.02 ± 0.053

GCCTAACACT
switch fluorescence ratio: 1.01 ± 0.04
